In paper PMC3441633 (PLoS ONE, 2012):

Target: T1, Ras (aa 1-166), bacterially expressed and purified (H-Ras) (UniProt P01112 1-166)
T1 construct: H-Ras aa 1-166 (all Ras constructs were the H-Ras isoform); Used loaded with GDP, loaded with GTPγS, or nucleotide-free (incubated with EDTA without added nucleotide); the nucleotide state is told by the assay; also called Ras 1-166; Ras-GDP; source: E. coli BL21 (pQlink Ras 1-166), purified on nickel beads, His tag cleaved with TEV protease
Test: pull-down; nucleotide-free Ras: 250 nM Ras with 850 nM GST protein on glutathione beads in Loading Buffer (15 mM EDTA, 5 mM MgCl2), 30 min at 30°C, no added nucleotide
Conditions: both partners purified

B1: GST-PI3KC2β-RBD (aa 368-463) (domain or fragment, UniProt O00750 368-463, looked up)
chain: SPEHLGDEVNLKVTVLCDRLQEALTFTCNCSSTVDLLIYQTLCYTHDDLRNVDVGDFVLKPCGLEEFLQNKHALGSHEYIQYCRKFDIDIRLQLME
notes: also called RBD of PI3KC2β; source: E. coli BL21 (DE3), purified on Glutathione Sepharose beads
binding result: binds
